US20070286858A1 (Pfizer, published 2007)
Where a chain is given by its changes, count along the chain named. Names may count otherwise.

Assays:
[1] = biological target: T1, human RAGE-Fc fusion protein (human, UniProt Q15109 23-344); assay: antibody competition ELISA on hRAGE-Fc; competitor biotinylated XT-M4; sheet note: N52D (labeled N71D) is glycosylation mutant in CDR2 of HC
T1 construct: also called hRAGE-Fc; huRAGE-Fc; not shown: Fc domain of human IgG
Protocol: ELISA plates were coated overnight with 1 ug/ml human RAGE-Fc. […] Briefly, plates were coated overnight with 1 ug/ml human RAGE-Fc.

[2] = biological target: T1, human RAGE-Fc fusion protein; assay: direct binding ELISA, coated hRAGE-Fc
Protocol: (§1) Antibodies were purified from hybridoma supernatants using standard procedures. Purified antibodies were evaluated for binding to soluble forms of RAGE with the use of ELISA. […] After washing and blocking with PBS containing 1% BSA and 0.05% Tween-20, 100 ul of sample (samples were in several forms: diluted immune serum, hybridoma supernatants, or purified antibodies, as indicated) was added and incubated for 1 hour at room temperature. The plates were washed with PBS, pH 7.2 and bound anti-RAGE antibodies were detected with the use of peroxidase-conjugated goat, anti-mouse IgG (H+L) (IgG) (Pierce, Rockford, Ill.) followed by incubation with the substrate TMB (BioFX Laboratories Owings Mills, Md. Laboratories). Absorbance values were determined at 450 nm in a spectrophotometer. The concentrations of monoclonal antibodies were determined with the use of peroxidase-labeled goat, anti-mouse IgG (Fcγ) (Pierce Rockford, Ill.) and a standard curve was generated by a purified, isotype-matched mouse IgG.

[3] = biological target: T1, human RAGE-Fc fusion protein; assay: ligand competition ELISA: HMGB1 coated, hRAGE-Fc pre-mixed with mAb, anti-huIgG-HRP; blocked ligand HMGB1
Protocol: Wells were washed and blocked as described above and exposed to 100 μl of pre-incubated mixtures of RAGE-Fc or TrkB-Fc (a non-specific Fc control), at 0.1 μg/ml, plus various forms of the indicated antibody preparation (dilutions of immune sera, hybridoma supernatants or purified antibodies) for 1 hour at room temperature.

[4] = biological target: T1, human RAGE-Fc fusion protein; assay: BIACORE direct binding, hRAGE-Fc immobilized
Protocol: The binding of selected murine and rat anti-RAGE antibodies to human and murine RAGE and to the V domains of human and murine RAGE was analyzed by BIACORE® direct binding assay. […] Solution of the anti-RAGE antibodies at two concentrations, 50 and 100 nm, were run over the immobilized RAGE-Fc proteins in duplicate. BIACORE™ technology utilizes changes in the refractive index at the surface layer upon binding of the anti-RAGE antibodies to the immobilized RAGE antigen. Binding is detected by surface plasmon resonance (SPR) of laser light refracting from the surface.
The kinetic rate constants (kₐ and kd) and association and dissociation constants (Kₐ and Kd) for the binding of murine and rat anti-RAGE antibodies to human and murine RAGE were determined by BIACORE™ direct binding assay. Analysis of the signal kinetics data for on-rate and off-rate allows the discrimination between non-specific and specific interactions.

[5] = biological target: T2, soluble human streptavidin-tagged RAGE (human, UniProt Q15109 23-344); assay: BIACORE capture assay, antibody on CM5 chip, hRAGE-SA 0-100 nM in solution
T2 construct: also called hRAGE-SA; human RAGE-strep
Protocol: The assays were performed by coating antibodies onto a CM5 BIA chip with 5000-7000 RU.

[6] = biological target: T3, human RAGE V-region-Fc fusion protein (human, UniProt Q15109 23-118); assay: direct binding ELISA, coated hRAGE V-region-Fc
T3 construct: also called hRAGE V-domain-Fc; hRAGE-V-Fc (CM); not shown: Fc domain of human IgG
Protocol: as §1

rhICAM-1-Fc = biological target: T4, rhICAM-1-Fc (human, UniProt P05362 28-480); assay: direct binding ELISA, receptor coated at 1 µg/ml, antibody at 20 µg/ml
T4 construct: also called rhlCAM-1-Fc; not shown: Fc part not described
T4 sequence (P05362 28-480): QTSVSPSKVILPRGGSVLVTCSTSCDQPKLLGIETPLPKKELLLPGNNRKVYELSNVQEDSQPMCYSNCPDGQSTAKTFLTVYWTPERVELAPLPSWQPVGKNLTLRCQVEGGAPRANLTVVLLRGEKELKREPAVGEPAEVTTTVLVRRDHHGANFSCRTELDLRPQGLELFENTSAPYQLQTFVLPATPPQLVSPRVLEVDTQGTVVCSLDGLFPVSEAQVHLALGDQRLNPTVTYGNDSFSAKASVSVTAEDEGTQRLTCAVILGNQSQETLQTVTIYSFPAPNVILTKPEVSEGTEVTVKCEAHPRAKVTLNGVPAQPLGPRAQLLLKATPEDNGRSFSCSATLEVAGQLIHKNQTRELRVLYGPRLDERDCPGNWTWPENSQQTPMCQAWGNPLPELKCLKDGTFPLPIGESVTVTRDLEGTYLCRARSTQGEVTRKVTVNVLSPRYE
Protocol: (§2) These receptors were chosen because they are cell-surface expressed, like RAGE, and their interaction with ligand is similarly dependent on charge. […] ELISA plates were coated overnight with 1 μg/ml of the listed receptor proteins.

rhVCAM-1 = biological target: T5, rhVCAM-1 (human, UniProt P19320 25-698); assay: as above
T5 sequence (looked up): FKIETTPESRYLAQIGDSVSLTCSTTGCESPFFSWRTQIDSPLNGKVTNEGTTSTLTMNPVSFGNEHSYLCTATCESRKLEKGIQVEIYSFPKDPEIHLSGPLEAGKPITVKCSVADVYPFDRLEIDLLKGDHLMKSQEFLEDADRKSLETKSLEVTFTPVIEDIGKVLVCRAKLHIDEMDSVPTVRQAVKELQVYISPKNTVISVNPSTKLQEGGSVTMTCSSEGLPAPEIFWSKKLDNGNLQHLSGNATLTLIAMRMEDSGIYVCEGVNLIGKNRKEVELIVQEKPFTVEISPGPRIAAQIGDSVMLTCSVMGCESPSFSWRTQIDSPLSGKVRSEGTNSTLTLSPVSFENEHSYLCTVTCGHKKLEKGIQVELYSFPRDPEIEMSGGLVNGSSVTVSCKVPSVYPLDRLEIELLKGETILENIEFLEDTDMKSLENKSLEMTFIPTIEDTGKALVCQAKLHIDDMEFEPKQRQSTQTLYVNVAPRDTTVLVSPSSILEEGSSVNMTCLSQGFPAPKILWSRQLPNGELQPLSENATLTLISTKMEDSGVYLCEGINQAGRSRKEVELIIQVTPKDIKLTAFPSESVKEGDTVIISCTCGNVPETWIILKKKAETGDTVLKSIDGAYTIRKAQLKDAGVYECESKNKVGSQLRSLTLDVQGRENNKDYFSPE
Protocol: as §2

mLox1-Fc = biological target: T6, mLox1-Fc (mouse, UniProt Q9EQ09 60-363); assay: as above
T6 construct: also called mLoxl-Fc; not shown: Fc part not described
T6 sequence (Q9EQ09 60-363): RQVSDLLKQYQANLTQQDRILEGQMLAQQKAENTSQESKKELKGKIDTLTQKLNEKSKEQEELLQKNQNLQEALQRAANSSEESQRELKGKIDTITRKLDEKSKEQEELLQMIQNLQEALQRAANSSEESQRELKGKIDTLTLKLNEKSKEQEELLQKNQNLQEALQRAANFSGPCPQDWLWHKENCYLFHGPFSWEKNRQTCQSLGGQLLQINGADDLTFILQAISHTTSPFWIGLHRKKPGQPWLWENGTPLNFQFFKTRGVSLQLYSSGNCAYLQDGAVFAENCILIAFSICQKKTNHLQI
Protocol: as §2

rhB7-H1-Fc = biological target: T7, rhB7-H1-Fc (human, UniProt Q9NZQ7 19-239); assay: as above
T7 construct: not shown: Fc part not described
T7 sequence (Q9NZQ7 19-239): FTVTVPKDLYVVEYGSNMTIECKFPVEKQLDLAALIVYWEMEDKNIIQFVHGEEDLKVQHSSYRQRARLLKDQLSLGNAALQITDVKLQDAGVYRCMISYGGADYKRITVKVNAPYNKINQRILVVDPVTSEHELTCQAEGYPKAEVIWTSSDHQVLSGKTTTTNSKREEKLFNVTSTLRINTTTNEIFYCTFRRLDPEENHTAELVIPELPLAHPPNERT
Protocol: as §2

[7] = biological target: rhTLR4 (C-terminal His tag) (human, UniProt O00206 24-631); assay: as above
Chain of rhTLR4 (C-terminal His tag) (O00206 24-631 limits assumed): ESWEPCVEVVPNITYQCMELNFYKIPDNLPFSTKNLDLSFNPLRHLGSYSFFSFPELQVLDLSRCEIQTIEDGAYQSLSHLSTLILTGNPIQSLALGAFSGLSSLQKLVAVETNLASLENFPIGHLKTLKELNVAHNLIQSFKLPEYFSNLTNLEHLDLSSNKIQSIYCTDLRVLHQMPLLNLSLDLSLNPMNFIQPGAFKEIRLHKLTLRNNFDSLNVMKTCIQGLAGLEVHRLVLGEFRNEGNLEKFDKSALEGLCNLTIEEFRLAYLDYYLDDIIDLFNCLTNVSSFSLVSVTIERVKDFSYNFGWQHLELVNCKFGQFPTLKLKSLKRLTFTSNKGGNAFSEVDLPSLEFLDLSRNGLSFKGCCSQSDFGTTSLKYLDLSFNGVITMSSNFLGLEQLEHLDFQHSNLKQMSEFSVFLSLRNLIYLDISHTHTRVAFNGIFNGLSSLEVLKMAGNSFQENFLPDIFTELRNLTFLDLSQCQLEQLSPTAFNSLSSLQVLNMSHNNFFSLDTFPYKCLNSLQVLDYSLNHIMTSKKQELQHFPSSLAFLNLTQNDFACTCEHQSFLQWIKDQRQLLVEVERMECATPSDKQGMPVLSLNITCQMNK
Protocol: as §2

[8] = biological target: T1, human RAGE-Fc fusion protein; assay: as above
Protocol: as §2

hLox1-Fc = hLox1-Fc (human, UniProt P78380 61-273); assay: as above
Protocol: as §2

rhNCAM-1 = rhNCAM-1 (human, UniProt P13591-3 20-603, limits assumed); assay: as above
Chain of rhNCAM-1 (P13591 other isoform, or with tags, fused parts or gaps limits assumed): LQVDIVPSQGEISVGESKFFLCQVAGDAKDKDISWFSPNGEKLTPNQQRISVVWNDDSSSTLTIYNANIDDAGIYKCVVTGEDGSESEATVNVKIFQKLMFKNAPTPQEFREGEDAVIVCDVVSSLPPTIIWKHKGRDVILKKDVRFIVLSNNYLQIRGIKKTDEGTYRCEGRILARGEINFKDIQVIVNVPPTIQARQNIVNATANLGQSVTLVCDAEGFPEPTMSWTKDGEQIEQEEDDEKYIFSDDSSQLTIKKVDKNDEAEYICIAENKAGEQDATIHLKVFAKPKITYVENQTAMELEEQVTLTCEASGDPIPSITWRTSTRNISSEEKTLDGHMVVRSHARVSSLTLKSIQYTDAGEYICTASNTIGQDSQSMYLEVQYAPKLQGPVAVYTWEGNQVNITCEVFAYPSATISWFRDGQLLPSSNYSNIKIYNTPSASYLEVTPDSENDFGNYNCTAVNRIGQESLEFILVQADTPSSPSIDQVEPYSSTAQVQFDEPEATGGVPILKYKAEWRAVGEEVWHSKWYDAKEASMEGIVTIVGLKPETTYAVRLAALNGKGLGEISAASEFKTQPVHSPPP
Protocol: as §2

human RAGE, full length = biological target: T8, human RAGE, full length (human, UniProt Q15109 23-404); assay: FACS, 293 cells infected with human RAGE adenovirus
T8 construct: Expressed on 293 or CHO cells, or endogenous in human lung sections; also called hRAGE; cell-surface hRAGE
Protocol: Human 293 cells were infected with the human and murine RAGE adenovirus. Infected cells were suspended in PBS containing 1% BSA at a density of 4×10⁴ cells/ml. Cells were incubated with 100 ul of sample (diluted immune sera, hybridoma supernatants or purified antibodies) for 30 min at 4° C. After washing, cells were incubated with PE-labeled goat, anti-mouse, IgG, F(ab′)₂ (DAKO Corporation GlostrupDenmark) for 30 min at 4° C. in the dark. Cell-associated fluorescence signals were measured by a FACScan flow cytofluorometer (Becton Dickinson) using 5000 cells per treatment. Propidium iodide was used to identify dead cells, which were excluded from the analysis.

[9] = biological target: T1, human RAGE-Fc fusion protein; assay: ELISA, coated hRAGE-Fc
Protocol: as §1

B1: XT-M4 with N52D in the heavy chain variable region (antibody, name in Kabat numbering, V domains shown)
VH: EVQLVESGGGLVQPGRSLKLSCVVSGFTFNNYWMTWIRQTPGKGLEWVASIDNSGDNTYYPDSVKDRFTISRDNAKSTLYLQMNSLRSEDTATYYCTRGGDITTGFDYWGQGVMVTVSS
VL: DIQMTQSPSSMSVSLGDTITITCRASQDVGIYVNWFQQKPGKSPRRMIYRATNLADGVPSRFSGSRSGSIYSLTISSLESEDVADYHCLEFDEHPLTFGSGTKVEIK
notes: Removes the glycosylation site in CDR2; also called XT-M4 N52D
With B1 the “IC50 (read off the curve)” value [1] was ~0.1 µg/mL.

B2: XT-H2 (antibody, mouse IgG1, V domains shown)
VH: QVQLQQSGAELAKPGASVKMSCKASGYTFTTYWMHWVKQRPGQGLYWIGYINPSTGYTEYNQKFKDKATLTADKSSSTAYMQLSSLTSEDSAVYYCARWAGYTIDYWGQGTSVTVSS
VL: DVVLTQTPLSLPVNIGDQASISCKSTKSLLNSDGFTYLDWYLQKPGQSPQLLIYLVSDRFSGVPDRFSGSGSGTDFTLTISRVEAEDLGVYYCFQSNSLPLTFGSGTKLEIK
notes: also called 1hRAGEP3/16; murine anti-huRAGE monoclonal antibody XT-H2
B2 was tested, and the EC50 [2] was 0.09 nM, the “IC50 (read off the curve)” value [3] was ~0.2 µg/mL and the Ka [4] was 1.14e+10 M⁻¹. It also gave a Kd [4] of 0.0876 nM, a koff [4] of 0.000504 s⁻¹ and a kon [4] of 5.76e+06 M⁻¹ s⁻¹. It also gave a Ka [5] of 9.48e+08 M⁻¹, a Kd [5] of 1.06 nM and a koff [5] of 0.00116 s⁻¹. It also gave a kon [5] of 1.1e+06 M⁻¹ s⁻¹ and an EC50 [6] of 0.1 nM.

B3: XT-M4-hVH-V2.0-2m/hVL-V2.10 (antibody, V domains shown)
VH: EVQLVESGGGLVQPGGSLRLSCAASGFTFNNYWMTWVRQAPGKGLEWVASIDNSGDNTYYPDSVKDRFTISRDNAKNSLYLQMNSLRAEDTAVYYCARGGDITTGFDYWGQGTLVTVSS
VL: DIQMTQSPSSLSASVGDRVTITCRASQDVGIYVNWFQQKPGKAPKRLIYRATNLADGVPSRFSGSGSGTDFTLTISSLQPEDFATYYCLEFDEHPLTFGGGTKVEIK
notes: '2m' is not explained; also called XT-M4-hVH-2.0-2m/hVL-V2.10
B3 gave an OD450 (rhICAM-1-Fc) of 0.007, an OD450 (rhVCAM-1) of 0.01 and an OD450 (mLox1-Fc) of 0.016. For the same binder, the OD450 (rhB7-H1-Fc) was 0.01, the OD450 [7] was 0.001 and the OD450 [8] was 3.81. It also gave an OD450 (hLox1-Fc) of 0.007 and an OD450 (rhNCAM-1) of 0.004.

B4: XT-M4-hVH-V2.0-2m/hVL-V2.11 (antibody, V domains shown)
VH: B3 VH
VL: B3 VL with K45R, G66R
notes: '2m' is not explained
B4 showed an OD450 (rhICAM-1-Fc) of 0.004, an OD450 (rhVCAM-1) of 0.012 and an OD450 (mLox1-Fc) of 0.01. It also gave an OD450 (rhB7-H1-Fc) of 0.009, an OD450 [7] of 0.003 and an OD450 [8] of 3.83. The OD450 (hLox1-Fc) was 0.022 and the OD450 (rhNCAM-1) was 0.011.

B5: XT-H3 (antibody, mouse IgG1, V domains shown)
VH: QVQLQQPGSELVRPGASVKLSCKTSGYTFTNYWMHWVKQRHGQGLEWIGNLYPGSGRTNYDEKFKSKVTLTEDTSSSTAYMHLSNLTSEDSAVYYCTSLRRGFVYWGQGTLVTVSA
VL: NIVMTQSPEYMSMSFGERVTLTCKASENVGSYVSWYQQKSEQSPKLLIYGASNRYTGVPDRFTGSGSATDFTLTITSVQAEDLADYHCGQTYTYPYTFGGGTKLEIK
notes: also called 1hRAGEP3/18
B5: binds (human RAGE, full length); binds [9].

B6: XT-H7 (antibody, mouse IgG1, V domains shown)
VH: QVQLKESGPGLVAPSQSLSITCTVSGFSLTNYGVHWVRQPPGKGLEWLGVMWAGGSTTYNSALMSRLSISKDNSKSQVFLKMNSLQTDDTAMYYCARYGNYAMDYWGQGTSVTVSS
VL: DIQMTQSPSSLSASLGGKVTITCKASQDIYKYIAWYQHKPGKGPRLLIHYTSTLQPGIPSRFSGSGSGRDYSFSISNLEPEDIATYYCLRYDNLYTFGGGTKLEIK
notes: also called 1hRAGEP3/66
B6: binds (human RAGE, full length); binds [9].
